Laboratory results reported in the DeepSol protein solubility set.

Assay: soluble on expression in E. coli; label from the status in PepcDB or PDB records

Sequence | soluble on expression in E. coli
MADNLPSDFDVIVIGTGLPESIIAAACSRSGQRVLHVDSRSYYGGNWASFSFSGLLSWLKEYQENNDVVTENSMWQEQILENEEAIPLSSKDKTIQHVEVFCYASQDLHKDVEEAGALQKNHASVTSAQSAEAAEAAETSCLPTAVEPLSMGSCEIPAEQSQCPGPESSPEVNDAEATGKKENSDAKSSTEEPSENVPKVQDNTETPKKNRITYSQIIKEGRRFNIDLVSKLLYSRGLLIDLLIKSNVSRYAEFKNITRILAFREGTVEQVPCSRADVFNSKQLTMVEKRMLMKFLTFCVEYEEHPDEYRAYEGTTFSEYLKTQKLTPNLQYFVLHSIAMTSETTSCTVDGLKATKKFLQCLGRYGNTPFLFPLYGQGELPQCFCRMCAVFGGIYCLRHSVQCLVVDKESRKCKAVIDQFGQRIISKHFIIEDSYLSENTCSRVQYRQISRAVLITDGSVLKTDADQQVSILTVPAEEPGSFAVRVIELCSSTMTCMKGTYLVHLTCMSSKTAREDLERVVQKLFTPYTEIEAENEQVEKPRLLWALYFNMRDSSDISRDCYNDLPSNVYVCSGPDSGLGNDNAVKQAETLFQQICPNEDFCPAPPNPEDIVLDGDSSQQEVPESSVTPETNSETPKESTVLGNPEEPSE | soluble
MADNPASSSSQQLLALRVMRLARPKFAPVDGFSHDPVDPTGFGELLAGKVSEISKESRQDLPIGEYLIAPQMFENIYLGETFTFYVNVVNESEKTVSSVSLKCELQTSTQRVVLPCSVQDATIESSKCEGQVISHEVKEIGQHILICSVNYKTSNGENMYFRKFFKFPVSKPIDVKTKFYSAENQDVYLEAQIENTSNANMFLEKVELDPSQHYNVTSIAHEDEFGDVGKLLKPKDIRQFLFCLTPADVHNTLGYKDLTSIGKLDMSWRTSMGEKGRLQTSALQRIAPGYGDVRLSVEKTPACVDVQKPFEVSCRLYNCSERALDLQLRLEQPSNRHLVFCSPSGVSLGQLPPSQHVDFSLNVFPVTVGIQSISGIRITDTFTKRIYEHDDIAQIFVS | not soluble
MADPIDNNSGKYTVQRFPAVADPADPGYSRCTTWVQAVSHGFHQQRRDDEYLAKTLTAYQTDKRELTGVYVNGSVPDHSLGADVPVATYATMRKALNIGFGRQLEAHLVTAVTVRGTHRRNGILRGMITADLEAAKDDGLAMAALTASEASIYGRFGFGVATFERSIKVDTGPRFRLRGLPQGTVEVADPSVLLDVAPQVFERLQRLSPGSIDRQEYYRLVASGSIGHDGKPDTSVRCALHYDLSGSLDGYVSYRFKGWDHKPYTMEIVDLVAASNAAYLDLWRFLGSIDLIDEVTWVEAPVDDPLAWALEDPRCIEASEIRDMLWLRILDTPAALQARSFPVAGRLVLEVTDSLGLAGGTWVLESDGGAAAVVKEAAGETPDLSLDAADLGSIYLGAVSPVTLAAAGRIQEKTPGAALLAQQLFAVERSAHCLTHF | soluble
MADPNESGLSKSVEIGGISDKLDSMKLSKSKLTFTDLPMDALYECFKQLDYLERMPLRKVCRKFKNAVDGMDPGFKKIRICIYEPEAFDVEFDSNLFYFVKESGNATHYSKFNPRKMLKWKFGNGEDSLEVVMKFVTKMMNFSKYCCKLIERILKQSAYPNLKKIHLFGLNSRQTPSILRHFKPGKLEFLWSDSFNAETMKEMYKLDQWKMAKSQFENIKIRDQCAPGIPSTFGYLWNYHRYAKLVTVGKAVEIKNCLMKSTNFKKWEFCMGMSLDAARVFDPNASGFEISRDGGVKGTIRCLFKGHSVKIDFSPWKFEITKE | not soluble
MADPSFASGRLGSRLQGSIAMIAEELLRAGRLDDALKALQEQVRSQPSNATLRIFLFQLLAVMGQWARAQNQLKVVGELDASALPMVQTYSTAIDCEALRREVFAGRLTPVILGQPAEWIAPLLQALSLDAEGHGEAAQALREQAFDAAPAVPGRIGEAPFAWLADADTRLGPVLEVIVNGRYAWLPMSNLRSLKVEAPSDLRDLVWLPAELTLANGGATVALLPARYAETVEHGDDAARLGRKTEWLDSGLPVGQRLFVTDAGETALFDLRELDFEPTDA | not soluble
MADRAEMFSLSTFHSLSPPGCRPPQDISLEEFDDEDLSEITDDCGLGLSYDSDHCEKDSLSLGRSEQPHPICSFQDDFQEFEMIDDNEEEDDEEEEEEEEEEEDGDRQGKAGGGPGSQALAGDSLIPSPSLEESHKLRPTTLHLTTLGAQDSLNNNNGGFTSAPPSSWQETVLRSPAQEPLKELPAPLLPAEEERHEVQSLARPGCDCEGNQPPEQPASSGGASPSSDPGIEADLRSHSSGGHEGRRSSQELSSPGSDSEDAGGARLGRMISSISETELELSSDGGSSSGRSSHLTNSIEEASSPASEPEPEPEPLHEPPRRPAFLPVGQDDTNSEYESGSESEPDLSEDADSPWLLSNLVSRMISEGSSPIRCPGQCLSPAPRLPEEAASQANSVPQDCQDPEAGPHVELVDMDTLCGPPPPAPAAPRLGPAQPGPCLFLSNPTRDTITPLWATPGRTARPGRSCSAACSEEEEEDEEEDEEDEEDAEDSVVPPGSRTTGSTAPLDASLVYDAVKYTLVVDEHTQLELVSLRRCAGLGNDSEEDSSCEASEEEAGATLLGSDQVPEDASPDSPDLTFSKKFLNVFVNSTSRSSSTESFGLFSCVVNGEEREQTHRAVFRFIPRHPDELELDVDDPVLVEAEEDDFWFRGFNMRTGERGVFPAFYAHAVPGPAKDLLGSKRSPCWVDRFDVQFLGSVEVP | soluble
MADSNDLMSEFQKLQQETSKIQSHLTKDFLSSSAKLSENRVLQATQELCGKLTEKQKVQDDTINLLLSALGQIQENQNKILNQFASMQSQLDIVKRRQDAYERDLIQQKPSVPEQKVGESSKKSPRSAESALKYVETCTKVVDLCIAVSMPGRLFSIGANKMESVEQLKMKIECQTGIPRTKFWLRLHGKPLYDDKKLADYKWDTSVELLVRAS | not soluble
MADVIEIRGPVYNGSDINDIIDTYGENNALTIDATKFAAFYYDIDDNVTTETLSILAVPGTEGNVIGEGGIVYETTIQQVDYEFYRPAAGWSNYSLIGFFAEKYIPINPDKADKLAKLVLDSDDKYTIRTGEQLDLGEGYSIEAKQVDVDGEKVWLEFTKDGEFVDDEIISVVSGSDNTWEVELDDIQDEDDVVVLRVHVNQVFQGAVDSIAQIEGLWLIDYTNAMKIESDDEFGNLDNVKINGDTLTITNEDTFTLTRDDEEEIAEGLFFKTADDTRALEHHHHHH | soluble
MAEANPRRGKMRFRRNAASFPGNLHLVLVLRPTSFLQRTFTDIGFWFSQEDFMPKLPVVMLSSVSDLLTYIDDKQLTPELGGTLQYCHSEWIIFRNAIENFALTVKEMAQMLQSFGTELAETELPDDIPSIEEILAIRAERYHLLKNDITAVTKEGKILLTNLEVPDTEGAVSSRLECHRQISGDWQTINKLLTQVHDMETAFDGFWEKHQLKMEQYLQLWKFEQDFQQLVTEVEFLLNQQAELADVTGTIAQVKQKIKKLENLDENSQELLSKAQFVILHGHKLAANHHYALDLICQRCNELRYLSDILVNEIKAKRIQLSRTFKMHKLLQQARQCCDEGECLLANQEIDKFQSKEDAQKALQDIENFLEMALPFINYEPETLQYEFDVILSPELKVQMKTIQLKLENIRSIFENQQAGFRNLADKHVRPIQFVVPTPENLVTSGTPFFSSKQGKKTWRQNQSNLKIEVVPDCQEKRSSGPSSSLDNGNSLDVLKNHVLNELIQTERVYVRELYTVLLGYRAEMDNPEMFDLMPPLLRNKKDILFGNMAEIYEFHNDIFLSSLENCAHAPERVGPCFLERKDDFQMYAKYCQNKPRSETIWRKYSECAFFQECQRKLKHRLRLDSYLLKPVQRITKYQLLLKELLKYSKDCEGSALLKKALDAMLDLLKSVNDSMHQIAINGYIGNLNELGKMIMQGGFSVWIGHKKGATKMKDLARFKPMQRHLFLYEKAIVFCKRRVESGEGSDRYPSYSFKHCWKMDEVGITEYVKGDNRKFEIWYGEKEEVYIVQASNVDVKMTWLKEIRNILLKQQELLTVKKRKQQDQLTERDKFQISLQQNDEKQQGAFISTEETELEHTSTVVEVCEAIASVQAEANTVWTEASQSAEISEEPAEWSSNYFYPTYDENEEENRPLMRPVSEMALLY | soluble
MAEEEVGNSQRQSEEIEAMAAIYGEEWCVIDENAKIFCIRVTDFMDDPKWTLCLQVMLPSEYPGTAPPSYQLNAPWLKGQERADLSNSLEEIYVHNMGESILYQWVEKIRDALIQKSQITEPDPDVKKKTEEVEVESEEDPILEHPPENPVKTLDLKISEETQPETEELPPVAHGVPITDRRSTFQAHVAPVVCPEQVKLVLAKLYENKKIASATHNIYAYRIFCEDKQTFLQDCEDDGETAAGGRLLHLMEILNVKNVMVVVSRWYGGILLGPDRFKHINNCARNILVEKNFTNTPDESTKNLGKKKVKKDKKKNDH | soluble
MAEEPYVFTLKKRNNDDAEDDWDRYSENVRPTRRGRKIDALKRNVEEVVTEETARLKLDQLLEELQNLECSEESEELQKILDFCSWFEEKLAIGFHKVYYELLWKIISRHGFLEKYKEDERMLKIWEKMADNSAGHAHDIYQFAISRKSLVKCAALYARWSQSVELAGAYVEARRVLILARTNCAVPIQIVNDAEDALEMREMRRHLQERDSDDDEEEEETRKAFTNLPVIGDNHTVPIVRLPSMCSDTTKKAMKFDTGNVERVNPVCKDNQMQPFEVLSYTDADDVEYLRNVHELHAHIERYAIKETTNPSITGSSTSEAAAVTIYPVSSSEFEVWTVEGSGPTKAKARMAIKRVFKDLSFEEYAASLLPNHPSMVRATAKKLDFDETL | not soluble
MAEITEVRIYKSKGNGSVKAYASVSFDNEFVVKGLKVVEGEKGLWVSMPSRRMKDGSFQDVFHPVSREARDKIVDAVLKAYQEQE | not soluble
MAELILNQRPYPRDLGKIVCVGRNYAAHAKELNNPIPSSPILFIKPASSAVPFGPVFSIPKDQGSVHHELEIAILIGKALSRASTEQVAESIAGIGLGLDLTLRDVQDQLKEKGHPWERAKSFDGACPLTEFVAVNLASEDEWQAIGLTLEKNGQFQQQGSSAEMLFPILPLIAHMSEHFSLQPGDVILTGTPAGVGPLEVGDSLSAKLSLEDNVLLTCDGVVI | soluble
MAELRQVQVDIQQPGGIRELVQREAGDQVRGQDSFPGPDIRRVYQEVRYERRGKLICLIMAGGLGSRMNRPEKALIEVHGEALVDRTIRCMNGICSDIYALIDPSMERLQGKLRSVNVKVLAKRRGGYIEDLNHAMHSIGKFPILVIPGDIFIFNCSAFLDAVRRGMLAEANVVSFTDAGQYTGISIFNAQSGSYQDIDLNGSVANINTPEDLRAVIERLRTSEKLDGSAGHADG | not soluble
MAEPGGHEGPASTQRAKVCETHTAMVFFVEDRVYKRKKPVDLGFLDYTTRSSRRAVCEREIELNRRFAPDVYLGLGELRTPGEQEAEPLVVMRRMPDDRRLSHLVRTGAPVADDLRAVARHLAAWHSAAPRGPAIAEQGTRDALAARWEASFTQVDVLAAKGPTRDEAGEVERLVRRYLAGRKPLFGLRIEQGRVLDGHGDLLADDVFCLGDGPRILDCLEFDDALRYVDGLDDAAFLAMDLESLGAPESAAFFLAQYGEYSGDPAPPSLWHHYVAYRAFVRAKVSLIQARQGAPGAHATARRLVRMALRHLRASAVGLTLVAGLPGTGKSTLSGALADRLGAVLLSSDRLRKEMAGLSPQQTASADYGEGLYTPEWTARTYAELLDRAAALLALGESVVLDATWIDSAQREAARHTAESAGADLVALHCHVPDDVTAARLSTRAPGASDADLGVAEAMAAEEQPWSGAVGVDTGGSLEAAVGQALAAVRPWGSDQAKVFRRPYMEPDLEHHHHHH | not soluble
MAEQRSNIMRLPPSGYRLHRFPPLAQPVAVDEEFGLDNQGWQESQVDIQQQLEAGFQQGLQQGHEEGLRQGIEQGKQQGLLDGQKEGFQKGFVSGEQAGKQGFLEAAKPVNDLFQALSRWQSEKEQQQRHMICELVQKVAQQVIRAELTLMPQQILALVDETLSAMPGKAETVTVHLNPQDLERITHINADLPKSWKLVANNELPIGGCQLVTDDAEADASCDSRLEACMDNVKQHLLDEVSIPQVESENE | not soluble
